From US20160369264A1 (HOWARD HUGHES MEDICAL INSTITUTE, published 2016)

B1: p3Z-42 Human Acylphosphatase fusion (designed binder)
chain: MAEGNTLISVDYEIFGKVQGVFFRKHTQAEGKKLGLVGWVQNTDRGTVQGQLQGPISKVRHMQEWLETRGSPKSHIDKANFNNEKVILKLDYSDFQIVKGSGSGSGGMHNNRLQLSRLERVYQSEQAEKLLLAGVMLRDPARFDLRGSLTHGRDVEIDTNVIIEGNVSLGNRVKIGTGCVIKNSAIGDDCEISPYTVVEDAVLAAACTIGPFARLRPGAVLLEGAHVGNFVEMKKAVLGKGSKAGHLTYLGDAAIGDNVNIGAGTITCNYDGANKFTTIIGDDVFVGSDTQLVAPVSVGKGATIAAGTTVTRNVGANALAISRVPQTQKEGWRRPVKKK
B2: p3Z-42 Human Glutaredoxin fusion (designed binder)
chain: MGAGTAQEFVNCKIQPGKVVVFIKPTCPYCRRAQEILSQLPIKQGLLEFVDITATNHTNEIQDYLQQLTGARTVPRVFIGKDCIGGCSDLVSLQQSGELLTRLKQIGALQGSGSGGMHNNRLQLSRLERVYQSEQAEKLLLAGVMLRDPARFDLRGSLTHGRDVEIDTNVIIEGNVSLGNRVKIGTGCVIKNSAIGDDCEISPYTVVEDAVLAAACTIGPFARLRPGAVLLEGAHVGNFVEMKKAVLGKGSKAGHLTYLGDAAIGDNVNIGAGTITCNYDGANKFTTIIGDDVFVGSDTQLVAPVSVGKGATIAAGTTVTRNVGANALAISRVPQTQKEGWRRPVKKK
B3: p6_9H_KDKCKXX (designed binder)
chain: MGFQGPLGSHMTISPKEKEKIAIHEAGHDLMGLVSDDDDKVHKISIIPRGMALGVTQQLPIEDKHIYDKKDLYNKILVLLGGRAAEEVFFGKDGITTGAENDLQRATDLAYRMVSMWGMSDKVGPIAIRRVANPFLGGMTTAVDTSPDLLREIDEEVKRIITEQYEKAKAIVEEYKLPLKFVVAALLHSETILCSLFAEVFKTFGIELKDKCK
notes: p6_9H with 33 C-terminal residues (including 6xHis) removed
B4: p6_9 (designed binder, not shown: small tags and cut ends)
chain: MGFQGPLGSHMTISPKEKEKIAIHEAGHDLMGLVSDDDDKVHKISIIPRGMALGVTQQLPIEDKHIYDKKDLYNKILVLLGGRAAEEVFFGKDGITTGAENDLQRATDLAYRMVSMWGMSDKVGPIAIRRVANPFLGGMTTAVDTSPDLLREIDEEVKRIITEQYEKAKAIVEEYKLPLKFVVAALLESETILCSLFAEVFKTFGIELKDKCKKEELFDKDRKSEENKELKSEEVKEEVV
notes: Alpha helical hexamer (C6), layer group P 6; Carries A29D from gene synthesis; also called Original Design p6_9 (Control); precursor to p6_9H
B5: p6_9 L193T, A198V, S189K (designed binder, not shown: small tags and cut ends)
chain: MGFQGPLGSHMTISPKEKEKIAIHEAGHDLMGLVSDDDDKVHKISIIPRGMALGVTQQLPIEDKHIYDKKDLYNKILVLLGGRAAEEVFFGKDGITTGAENDLQRATDLAYRMVSMWGMSDKVGPIAIRRVANPFLGGMTTAVDTSPDLLREIDEEVKRIITEQYEKAKAIVEEYKLPLKFVVAALLEKETITCSLFVEVFKTFGIELKDKCKKEELFDKDRKSEENKELKSEEVKEEVV
B6: p6_9 L193T (designed binder, not shown: small tags and cut ends)
chain: MGFQGPLGSHMTISPKEKEKIAIHEAGHDLMGLVSDDDDKVHKISIIPRGMALGVTQQLPIEDKHIYDKKDLYNKILVLLGGRAAEEVFFGKDGITTGAENDLQRATDLAYRMVSMWGMSDKVGPIAIRRVANPFLGGMTTAVDTSPDLLREIDEEVKRIITEQYEKAKAIVEEYKLPLKFVVAALLESETITCSLFAEVFKTFGIELKDKCKKEELFDKDRKSEENKELKSEEVKEEVV
B7: p6_9 E188H, L193T, A198V (designed binder, not shown: small tags and cut ends)
chain: MGFQGPLGSHMTISPKEKEKIAIHEAGHDLMGLVSDDDDKVHKISIIPRGMALGVTQQLPIEDKHIYDKKDLYNKILVLLGGRAAEEVFFGKDGITTGAENDLQRATDLAYRMVSMWGMSDKVGPIAIRRVANPFLGGMTTAVDTSPDLLREIDEEVKRIITEQYEKAKAIVEEYKLPLKFVVAALLHSETITCSLFVEVFKTFGIELKDKCKKEELFDKDRKSEENKELKSEEVKEEVV
notes: p6_9H (which already carries E188H) with L193T and A198V
B8: p6_9 E188R (designed binder, not shown: small tags and cut ends)
chain: MGFQGPLGSHMTISPKEKEKIAIHEAGHDLMGLVSDDDDKVHKISIIPRGMALGVTQQLPIEDKHIYDKKDLYNKILVLLGGRAAEEVFFGKDGITTGAENDLQRATDLAYRMVSMWGMSDKVGPIAIRRVANPFLGGMTTAVDTSPDLLREIDEEVKRIITEQYEKAKAIVEEYKLPLKFVVAALLRSETILCSLFAEVFKTFGIELKDKCKKEELFDKDRKSEENKELKSEEVKEEVV
B9: p6_9 E199L (designed binder, not shown: small tags and cut ends)
chain: MGFQGPLGSHMTISPKEKEKIAIHEAGHDLMGLVSDDDDKVHKISIIPRGMALGVTQQLPIEDKHIYDKKDLYNKILVLLGGRAAEEVFFGKDGITTGAENDLQRATDLAYRMVSMWGMSDKVGPIAIRRVANPFLGGMTTAVDTSPDLLREIDEEVKRIITEQYEKAKAIVEEYKLPLKFVVAALLESETILCSLFALVFKTFGIELKDKCKKEELFDKDRKSEENKELKSEEVKEEVV
B10: p6_9 L193T, A198V (designed binder, not shown: small tags and cut ends)
chain: MGFQGPLGSHMTISPKEKEKIAIHEAGHDLMGLVSDDDDKVHKISIIPRGMALGVTQQLPIEDKHIYDKKDLYNKILVLLGGRAAEEVFFGKDGITTGAENDLQRATDLAYRMVSMWGMSDKVGPIAIRRVANPFLGGMTTAVDTSPDLLREIDEEVKRIITEQYEKAKAIVEEYKLPLKFVVAALLESETITCSLFVEVFKTFGIELKDKCKKEELFDKDRKSEENKELKSEEVKEEVV
B11: p6_9 L193T, S189K (designed binder, not shown: small tags and cut ends)
chain: MGFQGPLGSHMTISPKEKEKIAIHEAGHDLMGLVSDDDDKVHKISIIPRGMALGVTQQLPIEDKHIYDKKDLYNKILVLLGGRAAEEVFFGKDGITTGAENDLQRATDLAYRMVSMWGMSDKVGPIAIRRVANPFLGGMTTAVDTSPDLLREIDEEVKRIITEQYEKAKAIVEEYKLPLKFVVAALLEKETITCSLFAEVFKTFGIELKDKCKKEELFDKDRKSEENKELKSEEVKEEVV
B12: p6_9 A184S (designed binder, not shown: small tags and cut ends)
chain: MGFQGPLGSHMTISPKEKEKIAIHEAGHDLMGLVSDDDDKVHKISIIPRGMALGVTQQLPIEDKHIYDKKDLYNKILVLLGGRAAEEVFFGKDGITTGAENDLQRATDLAYRMVSMWGMSDKVGPIAIRRVANPFLGGMTTAVDTSPDLLREIDEEVKRIITEQYEKAKAIVEEYKLPLKFVVSALLESETILCSLFAEVFKTFGIELKDKCKKEELFDKDRKSEENKELKSEEVKEEVV
B13: p6_9H (designed binder, not shown: small tags and cut ends)
chain: MGFQGPLGSHMTISPKEKEKIAIHEAGHDLMGLVSDDDDKVHKISIIPRGMALGVTQQLPIEDKHIYDKKDLYNKILVLLGGRAAEEVFFGKDGITTGAENDLQRATDLAYRMVSMWGMSDKVGPIAIRRVANPFLGGMTTAVDTSPDLLREIDEEVKRIITEQYEKAKAIVEEYKLPLKFVVAALLHSETILCSLFAEVFKTFGIELKDKCKKEELFDKDRKSEENKELKSEEVKEEVV
notes: Hexamer (C6), layer group P 6; also called E188H (p6_9H)
B14: p6_9 E188H, F218Y (designed binder, not shown: small tags and cut ends)
chain: MGFQGPLGSHMTISPKEKEKIAIHEAGHDLMGLVSDDDDKVHKISIIPRGMALGVTQQLPIEDKHIYDKKDLYNKILVLLGGRAAEEVFFGKDGITTGAENDLQRATDLAYRMVSMWGMSDKVGPIAIRRVANPFLGGMTTAVDTSPDLLREIDEEVKRIITEQYEKAKAIVEEYKLPLKFVVAALLHSETILCSLFAEVFKTFGIELKDKCKKEELYDKDRKSEENKELKSEEVKEEVV
notes: p6_9H (which already carries E188H) with F218Y
B15: p6_9 E188H, cut 6xHis (designed binder)
chain: MGFQGPLGSHMTISPKEKEKIAIHEAGHDLMGLVSDDDDKVHKISIIPRGMALGVTQQLPIEDKHIYDKKDLYNKILVLLGGRAAEEVFFGKDGITTGAENDLQRATDLAYRMVSMWGMSDKVGPIAIRRVANPFLGGMTTAVDTSPDLLREIDEEVKRIITEQYEKAKAIVEEYKLPLKFVVAALLHSETILCSLFAEVFKTFGIELKDKCKKEELFDKDRKSEENKELKSEEVKEEVV
notes: p6_9H with the 6xHis tag removed
B16: p6_9 E188H, D29A (designed binder, not shown: small tags and cut ends)
chain: MGFQGPLGSHMTISPKEKEKIAIHEAGHALMGLVSDDDDKVHKISIIPRGMALGVTQQLPIEDKHIYDKKDLYNKILVLLGGRAAEEVFFGKDGITTGAENDLQRATDLAYRMVSMWGMSDKVGPIAIRRVANPFLGGMTTAVDTSPDLLREIDEEVKRIITEQYEKAKAIVEEYKLPLKFVVAALLHSETILCSLFAEVFKTFGIELKDKCKKEELFDKDRKSEENKELKSEEVKEEVV
notes: p6_9H with the gene-synthesis mutation A29D reverted
B17: p6_9 L193T, A198V, S189K, cut 6xHis (designed binder)
chain: MGFQGPLGSHMTISPKEKEKIAIHEAGHDLMGLVSDDDDKVHKISIIPRGMALGVTQQLPIEDKHIYDKKDLYNKILVLLGGRAAEEVFFGKDGITTGAENDLQRATDLAYRMVSMWGMSDKVGPIAIRRVANPFLGGMTTAVDTSPDLLREIDEEVKRIITEQYEKAKAIVEEYKLPLKFVVAALLEKETITCSLFVEVFKTFGIELKDKCKKEELFDKDRKSEENKELKSEEVKEEVV
B18: p6_9HM (designed binder, not shown: small tags and cut ends)
chain: MGFQGPLGSHMTISPKEKEKIAIHEAGHDLMGLVSDDDDKVHKISIIPRGMALGVTQQLPIEDKHIYDKKDLYNKILVLLGGRAAEEVFFGKDGITTGAENDLQRATDLAYRMVSMWGMSDKVGPIAIRRVANPFLGGMTTAVDTSPDLLREIDEEVKRIITEQYEKAKAIVEEYKLPLKFVVAALLHSETILCSLFAEMFKTFGIELKDKCKKEELFDKDRKSEENKELKSEEVKEEVV
notes: p6_9H (which already carries E188H) with V200M; also called E188H, V200M (p6_9HM)
B19: p6_9 T203V (designed binder, not shown: small tags and cut ends)
chain: MGFQGPLGSHMTISPKEKEKIAIHEAGHDLMGLVSDDDDKVHKISIIPRGMALGVTQQLPIEDKHIYDKKDLYNKILVLLGGRAAEEVFFGKDGITTGAENDLQRATDLAYRMVSMWGMSDKVGPIAIRRVANPFLGGMTTAVDTSPDLLREIDEEVKRIITEQYEKAKAIVEEYKLPLKFVVAALLESETILCSLFAEVFKVFGIELKDKCKKEELFDKDRKSEENKELKSEEVKEEVV

Target: the molecule itself
Assay: self-assembly of fusion trimers; negative-stain EM of E. coli pellet
Protocol: Synthetic genes of each fusion were obtained and protein was expressed in Escherichia coli cells using a standard T7 based expression vector (Table 2). The protein expression was verified by sodium dodecyl sulfate polyacrylamide gel electrophoresis (SDS-PAGE) after separation of the soluble and insoluble cell portions. Samples of observed protein in the cellular pellets were analyzed for array formation by negative-stain Transmission Electron Microscopy (TEM). […] It is worth noting that 5/7 of the remaining fusions either shared a similar sequence and unknown but potentially similar structures (2 unpublished binding proteins) or were either the same molecular weight or much larger than the p3Z-42 monomer protein (3 proteins between ˜25-35 kDa).
On the basis of these initial hits, the general properties of the proteins that crystallized, specifically molecular weight, were evaluated. 16 further fusions were identified based either on smaller molecular weight sizes (13 proteins between 9 and 13 kDa) or other important targets close to this molecular weight range (3 proteins between 14 and 17 kDa). These second screen fusions were genetically fused and checked for array formation as before. […]

Binding result, binds:
B1
B2

Target: the molecule itself
Assay: sizes of crystals observed in the pellet; negative-stain EM (self-assembly)

Binding result, binds:
B3
B4
B5
B6
B7
B8
B9
B10
B11
B12
B13
B14
B15
B16
B17
B18
B19
